Test results published in patent publication EP4763858A1 (dated 2026).

T1: LMP1 (Epstein-Barr virus) peptide on HLA-A*02:01 (human)
T1 peptide: YLLEMLWRL

B1: T cell receptor LMP1-TCR2 (TCR, V domains shown)
Valpha: AQKITQTQPGMFVQEKEAVTLDCTYDTSDPSYGLFWYKQPSSGEMIFLIYQGSYDQQNATEGRYSLNFQKARKSANLVISASQLGDSAMYFCAMREVALNAGGTSYGKLTFGQGTILTVHP
Vbeta: GAVVSQHPSWVICKSGTSVKIECRSLDFQATTMFWYRQFPKQSLMLMATSNEGSKATYEQGVEKDKFLINHASLTLSTLTVTSAHPEDSSFYICSASGAQPDDPQHFGDGTRLSIL
B2: T cell receptor LMP1-TCR1 (TCR, V domains shown)
Valpha: AQSVSQHNHHVILSEAASLELGCNYSYGGTVNLFWYVQYPGQHLQLLLKYFSGDPLVKGIKGFEAEFIKSKFSFNLRKPSVQWSDTAEYFCALPRWDGGYNKLIFGAGTRLAVHP
Vbeta: DTEVTQTPKHLVMGMTNKKSLKCEQHMGHRAMYWYKQKAKKPPELMFVYSYEKLSINESVPSRFSPECPNSSLLNLHLHALQPEDSALYLCASSQEGTGELFFGEGSRLTVL

Target: T1, LMP1 (Epstein-Barr virus) peptide on …
Assay: multimer staining

Row | Binder | binding result
1 | B1 | recognises
2 | B2 | recognises
